The assay has as its target A beta 1-40 oligomer (synthetic A beta1-40, HCl form, 0.1 mg/ml in PBS, incubated at 37 degrees C for one hour) (UniProt P05067). The experiment in a line: SPR, Biacore 3000, A beta oligomer on CM5 chip, antibody as analyte.

Our source for the Kd, koff and kon values is patent US20120156193A1.

In general, Kd refers to the constant that tells how readily two partners part at equilibrium. Higher therefore signals weaker binding. One may read the koff as the first-order rate constant of dissociation. Low readings indicate slow dissociation, high ones fast dissociation. In general, kon refers to the rate constant with which the complex forms. Low values mean slow association, high ones fast association. As for “Anti-A beta antibody 6E10 (Covance Immuno-Technologies)”, the Kd turned out to be 2.91 nM, the koff is 0.000168 s⁻¹ and the kon was 57800 M⁻¹ s⁻¹.
